We go through two molecules from article doi:10.1101/2020.02.18.954511 (bioRxiv, 2020).

For data set [1], the target named is T1, diol dehydratase PduCDE (Salmonella enterica, UniProt P37450 1-554; O31041 1-224; O31042 1-173).
T1 sequence (looked up) 1: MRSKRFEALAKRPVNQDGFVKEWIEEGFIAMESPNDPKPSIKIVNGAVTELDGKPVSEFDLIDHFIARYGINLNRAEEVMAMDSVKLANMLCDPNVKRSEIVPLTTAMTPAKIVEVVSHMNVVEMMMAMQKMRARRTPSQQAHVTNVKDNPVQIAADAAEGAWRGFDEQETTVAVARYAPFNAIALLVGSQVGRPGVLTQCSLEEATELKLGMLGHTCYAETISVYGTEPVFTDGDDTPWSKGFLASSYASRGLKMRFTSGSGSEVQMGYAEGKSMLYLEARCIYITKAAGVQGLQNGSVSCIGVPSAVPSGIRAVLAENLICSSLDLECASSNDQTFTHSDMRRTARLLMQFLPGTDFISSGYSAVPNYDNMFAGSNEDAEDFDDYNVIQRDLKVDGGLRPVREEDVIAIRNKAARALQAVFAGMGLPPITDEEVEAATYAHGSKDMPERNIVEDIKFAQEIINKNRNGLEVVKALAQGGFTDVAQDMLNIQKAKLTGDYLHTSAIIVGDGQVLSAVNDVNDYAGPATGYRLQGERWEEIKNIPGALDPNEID
T1 sequence (looked up) 2: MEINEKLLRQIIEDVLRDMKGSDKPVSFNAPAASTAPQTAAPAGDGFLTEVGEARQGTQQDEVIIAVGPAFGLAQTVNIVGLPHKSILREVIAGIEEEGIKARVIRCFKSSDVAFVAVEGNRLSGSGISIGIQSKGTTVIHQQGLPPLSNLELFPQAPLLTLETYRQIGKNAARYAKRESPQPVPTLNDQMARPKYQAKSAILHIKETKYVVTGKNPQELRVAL
T1 sequence (looked up) 3: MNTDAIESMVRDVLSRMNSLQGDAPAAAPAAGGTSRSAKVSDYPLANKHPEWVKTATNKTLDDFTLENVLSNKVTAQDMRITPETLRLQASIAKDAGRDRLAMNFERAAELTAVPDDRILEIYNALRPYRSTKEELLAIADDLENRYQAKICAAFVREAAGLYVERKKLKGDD
In words: time-resolved fluorescence anisotropy. Background: Polarisation of emitted light reports the rotation of a fluorescent probe.

The data set “dynamic light scattering” concerns the molecule itself. In words: dynamic light scattering.
The target in data set [2] is T1, diol dehydratase PduCDE. In words: time-resolved fluorescence anisotropy. The source holds these as a separate data set.

Like-named read-outs stand apart in the source and are kept apart here.

B1: shell protein PduB’M38L (natural protein, Salmonella enterica, UniProt P37449 1-270, looked up)
chain: MSSNELVEQIMAQVIARVATPEQQAIPGQPQPIRETALAEKSCSLTEFVGTAIGDTLGLVIANVDTALLDAMKLEKRYRSIGILGARTGAGPHIMAADEAVKATNTEVVSIELPRDTKGGAGHGSLIILGGNDVSDVKRGIEVALKELDRTFGDVYGNEAGHIELQYTARASYALEKAFGAPIGRACGIIVGAPASVGVLMADTALKSANVEVVAYSSPAHGTSFSNEAILVISGDSGAVRQAVTSAREIGKTVLATLGSEPKNDRPSYI
For the molecule B1, the binding result with diol dehydratase PduCDE [1] was “binds”.

B2: shell protein PduB (N-terminal truncated) (natural protein, Salmonella enterica, UniProt P37449 38-270, looked up)
chain: MAEKSCSLTEFVGTAIGDTLGLVIANVDTALLDAMKLEKRYRSIGILGARTGAGPHIMAADEAVKATNTEVVSIELPRDTKGGAGHGSLIILGGNDVSDVKRGIEVALKELDRTFGDVYGNEAGHIELQYTARASYALEKAFGAPIGRACGIIVGAPASVGVLMADTALKSANVEVVAYSSPAHGTSFSNEAILVISGDSGAVRQAVTSAREIGKTVLATLGSEPKNDRPSYI
Regarding B2, the binding result in “dynamic light scattering” and with diol dehydratase PduCDE [2] was “binds” each time.
